Measurements taken from PMC12297416.

Molecular target: NusA (E. coli (endogenous in MG1655)) (UniProt P0AFF6)
Assay: single-molecule tracking in live cells; HaloTag fusions labelled with JFX549 in growing E. coli at 37 °C; 5 ms camera exposure; HMM fit of diffusion trajectories, 5-state models coarse-grained with a threshold at 1 µm^2/s (slow diffusion state = bound)

Substance: IF2-Domain-I-HaloTag (domain or fragment)
- dwell time in the slow-diffusion state: 30 ms
- occupancy in the slow state (after cell sorting by size): 11%
- steady-state fraction in the slow-diffusion state: 14%
